Experimental data taken from ChEMBL document CHEMBL3860051, “Phosphorothioate analogs of P1,P3-di(nucleosid-5'-yl) triphosphates: Synthesis, assignment of the absolute configuration at P-atoms and P-stereodependent recognition by Fhit hydrolase” (Bioorg Med Chem, 2016).

Columns and labels:
[1] = biological target: Bis(5'-adenosyl)-triphosphatase (Homo sapiens) (UniProt P49789); assay: Activity at human Fhit expressed in Escherichia coli BL 21 assessed as enzyme Km by Michaelis-Menten equation relative to control
Sequence of Bis(5'-adenosyl)-triphosphatase (Homo sapiens) (P49789 whole entry, looked up): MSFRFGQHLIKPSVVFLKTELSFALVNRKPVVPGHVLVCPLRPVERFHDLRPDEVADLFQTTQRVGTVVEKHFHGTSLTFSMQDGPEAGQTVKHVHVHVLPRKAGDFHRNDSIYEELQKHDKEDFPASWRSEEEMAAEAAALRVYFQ

[2] = test system: Nc1ncnc2c1ncn2[C@@H]1O[C@H](COP(=O)(O)OP(=O)(O)OP(=O)(O)OC[C@H]2O[C@@H](n3cnc4c(N)ncnc43)[C@H](O)[C@@H]2O)[C@@H](O)[C@H]1O; assay: Activity at human Fhit expressed in Escherichia coli SG100 assessed as enzyme Kcat by Michaelis-Menten equation
[3] = test system: Nc1ncnc2c1ncn2[C@@H]1O[C@H](COP(=O)(O)OP(=O)(O)OP(=O)(O)OC[C@H]2O[C@@H](n3cnc4c(N)ncnc43)[C@H](O)[C@@H]2O)[C@@H](O)[C@H]1O; assay: (§1) Activity at human Fhit expressed in Escherichia coli SG100 assessed as enzyme Km by Michaelis-Menten equation
[4] = test system: Nc1ncnc2c1ncn2[C@@H]1O[C@H](CO[P@](=O)(S)OP(=O)(O)OP(=O)(O)OCc2cccc([N+](=O)[O-])c2)[C@@H](O)[C@H]1O; assay: as §1
[5] = test system: Nc1ncnc2c1ncn2[C@@H]1O[C@H](COP(=O)(O)OP(=O)(O)OP(=O)(O)OC[C@H]2O[C@@H](n3cnc4c(N)ncnc43)[C@H](O)[C@@H]2O)[C@@H](O)[C@H]1O; assay: (§2) Activity at human Fhit expressed in Escherichia coli SG100 assessed as ratio of enzyme Kcat to Km by Michaelis-Menten equation
[6] = test system: Nc1ncnc2c1ncn2[C@@H]1O[C@H](CO[P@](=O)(S)OP(=O)(O)OP(=O)(O)OCc2cccc([N+](=O)[O-])c2)[C@@H](O)[C@H]1O; assay: as §2
[7] = test system: Nc1ncnc2c1ncn2[C@@H]1O[C@H](CO[P@](=O)(S)OP(=O)(O)O[P@@](=O)(S)OC[C@H]2O[C@@H](n3cnc4c(N)ncnc43)[C@H](O)[C@@H]2O)[C@@H](O)[C@H]1O; assay: (§3) Activity at human Fhit expressed in Escherichia coli BL21 assessed as enzyme Kcat by Michaelis-Menten equation
[8] = test system: Nc1ncnc2c1ncn2[C@@H]1O[C@H](CO[P@](=O)(S)OP(=O)(O)O[P@](=O)(S)OC[C@H]2O[C@@H](n3cnc4c(N)ncnc43)[C@H](O)[C@@H]2O)[C@@H](O)[C@H]1O; assay: as §3
[9] = test system: Nc1ncnc2c1ncn2[C@@H]1O[C@H](CO[P@@](=O)(S)OP(=O)(O)O[P@](=O)(S)OC[C@H]2O[C@@H](n3cnc4c(N)ncnc43)[C@H](O)[C@@H]2O)[C@@H](O)[C@H]1O; assay: as §3
[10] = test system: Nc1ncnc2c1ncn2[C@@H]1O[C@H](CO[P@](=O)(S)OP(=O)(O)O[P@@](=O)(S)OC[C@H]2O[C@@H](n3cnc4c(N)ncnc43)[C@H](O)[C@@H]2O)[C@@H](O)[C@H]1O; assay: (§4) Activity at human Fhit expressed in Escherichia coli BL21 assessed as ratio of enzyme Kcat to Km by Michaelis-Menten equation
[11] = test system: Nc1ncnc2c1ncn2[C@@H]1O[C@H](CO[P@](=O)(S)OP(=O)(O)O[P@](=O)(S)OC[C@H]2O[C@@H](n3cnc4c(N)ncnc43)[C@H](O)[C@@H]2O)[C@@H](O)[C@H]1O; assay: as §4
[12] = test system: Nc1ncnc2c1ncn2[C@@H]1O[C@H](CO[P@@](=O)(S)OP(=O)(O)O[P@](=O)(S)OC[C@H]2O[C@@H](n3cnc4c(N)ncnc43)[C@H](O)[C@@H]2O)[C@@H](O)[C@H]1O; assay: as §4
[13] = test system: Nc1ncnc2c1ncn2[C@@H]1O[C@H](CO[P@](=O)(S)OP(=O)(O)OP(=O)(O)OCc2cccc([N+](=O)[O-])c2)[C@@H](O)[C@H]1O; assay: Activity at human Fhit expressed in Escherichia coli SG100 assessed as enzyme Vmax by Michaelis-Menten equation
[14] = test system: Nc1ncnc2c1ncn2[C@@H]1O[C@H](CO[P@](=O)(S)OP(=O)(O)O[P@@](=O)(S)OC[C@H]2O[C@@H](n3cnc4c(N)ncnc43)[C@H](O)[C@@H]2O)[C@@H](O)[C@H]1O; assay: (§5) Activity at human Fhit expressed in Escherichia coli BL21 assessed as enzyme Km by Michaelis-Menten equation
[15] = test system: Nc1ncnc2c1ncn2[C@@H]1O[C@H](CO[P@](=O)(S)OP(=O)(O)O[P@](=O)(S)OC[C@H]2O[C@@H](n3cnc4c(N)ncnc43)[C@H](O)[C@@H]2O)[C@@H](O)[C@H]1O; assay: as §5
[16] = test system: Nc1ncnc2c1ncn2[C@@H]1O[C@H](CO[P@@](=O)(S)OP(=O)(O)O[P@](=O)(S)OC[C@H]2O[C@@H](n3cnc4c(N)ncnc43)[C@H](O)[C@@H]2O)[C@@H](O)[C@H]1O; assay: as §5

Sequence of Bis(5'-adenosyl)-triphosphatase (Homo sapiens), P49789 (P49789 whole entry): as the sequence (P49789 whole entry, looked up) above

Nc1ncnc2c1ncn2[C@@H]1O[C@H](CO[P@@](=O)(S)OP(=O)(O)O[P@](=O)(S)OC[C@H]2O[C@@H](n3cnc4c(N)ncnc43)[C@H](O)[C@@H]2O)[C@@H](O)[C@H]1O
fold change (FC) [1]: 2.8

Nc1ncnc2c1ncn2[C@@H]1O[C@H](CO[P@](=O)(S)OP(=O)(O)O[P@@](=O)(S)OC[C@H]2O[C@@H](n3cnc4c(N)ncnc43)[C@H](O)[C@@H]2O)[C@@H](O)[C@H]1O
fold change (FC) [1]: 2.8

Nc1ncnc2c1ncn2[C@@H]1O[C@H](CO[P@](=O)(S)OP(=O)(O)O[P@](=O)(S)OC[C@H]2O[C@@H](n3cnc4c(N)ncnc43)[C@H](O)[C@@H]2O)[C@@H](O)[C@H]1O
fold change (FC) [1]: 2.8

Bis(5'-adenosyl)-triphosphatase (Homo sapiens), P49789
kcat [2]: 73 s⁻¹ | Km [3]: 1.9 µM | Km [4]: 2.8 µM | kcat/Km [5]: 3.8 ×10⁷ /M/s | kcat/Km [6]: 0.125 ×10⁶ /s/M | kcat [7]: 4.8 ×10⁻⁴ /s | kcat [8]: 29.9 ×10⁻⁴ /s | kcat [9]: 8.4 ×10⁻⁴ /s | kcat/Km [10]: 1.4 ×10² /M/s | kcat/Km [11]: 24 ×10² /M/s | kcat/Km [12]: 1.7 ×10² /M/s | Vmax (10'-6mol/min/ug) [13]: 0.35 | Km [14]: 3.54 µM | Km [15]: 1.25 µM | Km [16]: 5.32 µM
